Experimental data as given in patent publication US8987192B2, “Potent and selective mediators of cholesterol efflux” (The Regents of the University of California, priority 2006, dated 2015).
Entries after “also recorded” stand apart in the source; their conditions may differ. Where a SMILES comes first, the peptide text is derived from it. Where no end group is shown, it is not given here.

Tests used:
[1] = Pharmacokinetic analysis with monophasic decay model; type: in vivo
Description: Position 11, i.e., A, in the polypeptide of SEQ ID NO:4 can be substituted with other non-polar (hydrophobic) amino acids as well as other polar non-charged amino acids.

ABCA1 [2] = test: Cholesterol efflux in the absence and presence of ABCA1 (mouse macrophages and HeLa cells transfected with ABCA1 cDNA); type: cell-based; conditions: 8 hours, saturating peptide >30-fold Km; for requirement of ABCA1 for cholesterol efflux activity: mouse macrophages and ABCA1-transfected HeLa
Description: The large excess of polypeptide was provided to determine the extent (if any) of non-specific efflux, in the absence of ABCA1 induction.

ABCA1 [3] = target: ABCA1 (Mus musculus, UniProt P41233); test: Cholesterol efflux from [3H]cholesterol-labeled ABCA1-expressing J774 mouse macrophages; type: cell-based; set-up: to upregulate cellular ABCA1 protein; endogenous in cells; host or cells: J774 mouse macrophages
ABCA1 (Mus musculus, UniProt P41233), sequence (P41233 whole entry): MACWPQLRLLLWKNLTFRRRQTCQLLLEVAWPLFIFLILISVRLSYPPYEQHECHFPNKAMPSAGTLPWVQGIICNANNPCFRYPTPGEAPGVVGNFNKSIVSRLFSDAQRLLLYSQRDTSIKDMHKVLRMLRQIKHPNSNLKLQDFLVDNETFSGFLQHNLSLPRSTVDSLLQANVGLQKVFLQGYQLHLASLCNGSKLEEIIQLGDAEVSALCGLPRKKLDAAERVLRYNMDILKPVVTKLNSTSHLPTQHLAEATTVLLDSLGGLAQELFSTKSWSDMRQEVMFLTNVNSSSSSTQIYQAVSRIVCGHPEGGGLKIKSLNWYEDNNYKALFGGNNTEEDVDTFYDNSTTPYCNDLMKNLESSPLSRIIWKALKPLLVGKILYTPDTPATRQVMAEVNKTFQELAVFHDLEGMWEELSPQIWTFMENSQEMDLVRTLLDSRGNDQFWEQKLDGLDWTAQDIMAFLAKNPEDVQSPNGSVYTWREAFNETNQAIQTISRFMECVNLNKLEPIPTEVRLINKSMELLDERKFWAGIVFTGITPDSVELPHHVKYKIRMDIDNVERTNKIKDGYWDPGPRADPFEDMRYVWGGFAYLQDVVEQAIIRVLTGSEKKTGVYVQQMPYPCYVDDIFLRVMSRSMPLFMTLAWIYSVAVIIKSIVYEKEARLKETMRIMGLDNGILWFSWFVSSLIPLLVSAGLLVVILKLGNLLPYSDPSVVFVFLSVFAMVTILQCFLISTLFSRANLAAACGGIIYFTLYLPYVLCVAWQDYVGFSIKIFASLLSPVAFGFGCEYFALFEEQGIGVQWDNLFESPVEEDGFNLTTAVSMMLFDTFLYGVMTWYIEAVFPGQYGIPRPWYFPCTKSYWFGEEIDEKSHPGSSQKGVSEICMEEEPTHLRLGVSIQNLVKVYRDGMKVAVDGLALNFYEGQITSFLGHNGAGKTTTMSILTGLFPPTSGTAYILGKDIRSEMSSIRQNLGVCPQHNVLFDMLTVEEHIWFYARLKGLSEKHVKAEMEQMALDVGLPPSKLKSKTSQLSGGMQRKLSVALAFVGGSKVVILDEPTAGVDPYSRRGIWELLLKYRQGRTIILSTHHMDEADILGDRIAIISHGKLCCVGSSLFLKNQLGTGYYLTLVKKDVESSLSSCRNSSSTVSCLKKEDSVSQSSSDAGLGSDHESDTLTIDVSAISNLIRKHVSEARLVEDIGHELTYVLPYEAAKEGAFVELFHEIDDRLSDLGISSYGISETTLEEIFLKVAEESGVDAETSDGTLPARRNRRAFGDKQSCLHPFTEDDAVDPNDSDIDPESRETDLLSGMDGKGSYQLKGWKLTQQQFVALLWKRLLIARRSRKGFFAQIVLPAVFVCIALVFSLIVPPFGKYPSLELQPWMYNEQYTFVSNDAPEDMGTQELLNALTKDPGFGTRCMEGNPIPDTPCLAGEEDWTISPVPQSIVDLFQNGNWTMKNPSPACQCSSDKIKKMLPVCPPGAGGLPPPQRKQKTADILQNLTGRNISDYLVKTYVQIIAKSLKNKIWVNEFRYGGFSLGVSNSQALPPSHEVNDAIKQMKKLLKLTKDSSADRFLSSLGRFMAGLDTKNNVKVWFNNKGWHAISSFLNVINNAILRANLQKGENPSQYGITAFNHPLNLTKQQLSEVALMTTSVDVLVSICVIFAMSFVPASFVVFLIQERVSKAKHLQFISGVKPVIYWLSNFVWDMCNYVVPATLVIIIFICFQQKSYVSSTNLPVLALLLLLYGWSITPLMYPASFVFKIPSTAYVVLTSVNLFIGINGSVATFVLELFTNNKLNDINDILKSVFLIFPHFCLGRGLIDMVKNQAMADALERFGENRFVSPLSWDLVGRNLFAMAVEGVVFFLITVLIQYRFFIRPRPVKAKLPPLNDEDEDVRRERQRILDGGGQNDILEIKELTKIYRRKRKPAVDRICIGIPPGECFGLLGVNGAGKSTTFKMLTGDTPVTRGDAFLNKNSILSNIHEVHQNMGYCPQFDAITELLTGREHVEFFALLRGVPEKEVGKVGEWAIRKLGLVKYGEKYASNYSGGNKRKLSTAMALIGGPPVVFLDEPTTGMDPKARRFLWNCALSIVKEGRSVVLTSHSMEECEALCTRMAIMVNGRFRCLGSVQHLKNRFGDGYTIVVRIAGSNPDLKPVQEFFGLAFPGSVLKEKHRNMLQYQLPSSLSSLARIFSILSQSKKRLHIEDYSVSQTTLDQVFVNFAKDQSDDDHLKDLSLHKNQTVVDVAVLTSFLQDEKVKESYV
Method: In some embodiments, a polypeptide known to mediate cholesterol efflux (e.g., helix 9/10 of Apo A-I) is used to screen for additional mediators of cholesterol efflux in a cell based assay. For example, cell lines in which cholesterol efflux can be enhanced using a cAMP analog that up-regulates ABCA1 protein expression (e.g., J774 macrophages) can conveniently be used to assess the ability of a polypeptide of the present invention to mediate cholesterol efflux. The cells are incubated with labeled cholesterol (e.g., [^3H]cholesterol) under conditions appropriate for cholesterol uptake by the cells. Thus, cAMP or cAMP analogs (e.g., CPT-cAMP) are incubated with the cells for a suitable time before the initiation of cellular cholesterol efflux, i.e., prior to contacting the cells with a test polypeptide. Measurement of labeled cholesterol appearing in the medium is used to determine the cholesterol efflux mediating activity of the test polypeptide.
J774 mouse macrophages labeled with [^3H]cholesterol were treated (20 h) with 22-hydroxycholesterol (10 μM)/cis-retinoic acid (10 μM) to upregulate cellular ABCA1 protein.
Mouse macrophages were labeled with [^3H]cholesterol and treated with a cAMP analog to induce ABCA1 expression. […] Km values were calculated using the Michaelis-Menton equation and GraphPad Prism4 software.
Inverted sequence peptides synthesized with all L-amino acids and all D-amino acids were tested for cholesterol efflux activity using ABCA1 expressing J774 macrophages.
Two peptide analogs were engineered; the first replacing glutamic acid residues (E) at position 8 and 15 with aspartic acid residues (D), i.e., E8, 15>D polypeptides, and the second, replacing E1, 7, 8, 15, 18, 19 with D, i.e., all D (Asp) polypeptide. Cholesterol efflux activity was determined using J774 macrophages treated with and without a cAMP analog to modulate ABCA1 expression.
The impact of the A12>L substitution was also tested for activity, which also expanded non-polar surface area.
1-palmitoyl-2-oleoyl-phosphatidylcholine (POPC) was used to evaluate the cholesterol efflux properties of a formulated polypeptide of the present invention. […] To test cholesterol efflux activity, J774 mouse macrophages were labeled with [^3H]cholesterol and treated with and without cAMP to modulate ABCA1 expression.

[4] = test system: Apolipoprotein E knock-out mice; test: Atherosclerosis in Apolipoprotein E knock-out mice on Western diet, pooled series (Example 19); type: in vivo, mouse; conditions: 30 mg/kg IP, 21 injections, pooled data of three series
Method: The polypeptide of SEQ ID NO:4 and its Y26 analog have been evaluated with respect to ability to inhibit atherosclerosis in Apolipoprotein E knock-out mice. The mice were given Western diet for 18 weeks and then randomized to receive saline, free polypeptide or polypeptide-phospholipid complex. […] The degree of atherosclerosis was then determined in whole aorta and aortic root/sinus. Three experimental series were performed. […] The results are equal to or better than previously have been obtained with IV infusions of 40 mg/kg Apolipoprotein A-I Milano/phospholipids complex into Apo E knock-out mice (Shah et al., Circ., 97:780-5, 1998).
As noted above, data from three experimental series were pooled. Pooling of data is justified as only minor changes in the procedures were made (21 injections at 30 mg/kg over 42 and 21 days, respectively), and the diet regimens and sources of mice and polypeptide, respectively, were the same. In the first experiment S26 was substituted for Y26.

[5] = Pharmacokinetics of iodinated peptide in Sprague-Dawley rats; type: in vivo; conditions: for Half-live: IP, time interval 0-30 hours
Method: An iodinated version of polypeptide of SEQ ID NO:4, which was modified to have a Y residue at the C-terminus, was administered intravenously to Sprague-Dawley rats. The kinetics reflected a biphasic elimination, which is typical of peptides. […] This distribution pattern resembles what has been reported for ApoA-I and HDL. […] (See, FIG. 23).
The bioavailability in percent was calculated from the area under the curve IP as divided by area under the curve IV after adjustment for residual activity and the bioavailability was about 40%.

With `CC(C)C[C@H](NC(=O)[C@H](Cc1ccccc1)NC(=O)[C@H](CCC(=O)O)NC(=O)[C@H](CCC(=O)O)NC(=O)[C@H](C)NC(=O)[C@H](Cc1ccccc1)NC(=O)[C@H](CCC(=O)O)NC(=O)[C@H](CCCNC(=N)N)NC(=O)[C@H](Cc1ccccc1)NC(=O)[C@H](C)NC(=O)[C@H](Cc1ccc(O)cc1)NC(=O)[C@H](Cc1ccccc1)NC(=O)[C@H](Cc1c[nH]c2ccccc12)NC(=O)[C@H](CCC(=O)O)NC(=O)[C@H](CCC(=O)O)NC(=O)[C@H](CC(C)C)NC(=O)[C@H](CCCCN)NC(=O)[C@H](CO)NC(=O)[C@H](CCCNC(=N)N)NC(=O)[C@@H](NC(=O)[C@@H](N)CCC(=O)O)C(C)C)C(=O)N[C@@H](C)C(=O)N[C@@H](CCCNC(=N)N)C(=O)N[C@@H](CC(C)C)C(=O)N[C@@H](CCCCN)C(=O)N[C@@H](CO)C(=O)O` [A11>Y11] (H-EVRSKLEEWFYAFREFAEEFLARLKS-OH) the “pharmacokinetic properties compared to parent polypeptide” value [1] was “identical pharmacokinetic properties”.
In the case of “Apo A-I: full-length Apolipoprotein AI, polypeptide comprising 243 amino acids”, the “requirement of ABCA1 for cholesterol efflux activity” value (ABCA1 [2]) is reported as “required ABCA1 for activity” and the “cholesterol efflux at low mass concentrations” value (ABCA1 [3]; increasing concentrations based on mass) is reported as “largely ineffective”.
In the case of “EVRSKLEEWFAAFREFFEEFLARLKS (S1 amphipathic alpha-helix polypeptide core sequence selectively binds HDL, high-affinity ligand for ATP- binding cassette transporter A1 (ABCA1), ABCA1-lipid cholesterol efflux, ABCA1-stablization, anti-oxidant and anti-inflammatory activity) [SEQ ID NO:5]”, the “non-specific efflux activity in the absence of ABCA1” value (ABCA1 [2]) is reported as “minimal”, the “requirement of ABCA1 for cholesterol efflux activity” value (ABCA1 [2]) is reported as “required ABCA1 for efflux activity” and the “cholesterol efflux efficiency/potency on per molecule (molar) basis versus apolipoproteins” value (ABCA1 [3]; Km in molar units) is reported as “activity similar to full-length Apo A-I, Apo E, and the C-terminal (CT) domain of Apo E”. The “cholesterol efflux from macrophages not induced for ABCA1 (non-specific)” value (ABCA1 [3]; no cAMP) was “Low efflux”.
In the case of “SEQ ID NO: 4/Y26: SEQ ID NO:4 with serine 26 replaced by tyrosine; iodinated version used for pharmacokinetics (EVRSKLEEWFAAFREFAEEFLARLKY; also: iodinated version used for pharmacokinetics)”, the “antiatherosclerotic effect (whole aorta and aortic root/sinus)” value [4] is reported as “significant antiatherosclerotic effects”, the Half-live ([5]; listed as SEQ ID NO: 4/Y26 peptide) is reported as 11.2 h and the Half-live ([5]; modified to include a tyrosine at the C-terminus) is reported as “about 11 hours”. The Half-live ([5]; which was modified to have a Y residue at the C-terminus) was “about 11.2 hours”, the “distribution volume relative to plasma volume” value ([5]; IV) was “approximately twice as large as the plasma volume” and the Correlation ([5]; IV, 0-2.5 hours) was −0.95. For the same compound, the “Half-live, first phase” value ([5]; IV, 0-2.5 hours) was 4.5 h, the Clearance ([5]; IV, 2.5-24 hours) was 1.2 mL/h/kg and the “Half-live, terminal (second phase)” value ([5]; IV, 2.5-24 hours) was 33.7 h. For the same compound, the Volume of distribution ([5]; IV, 2.5-24 hours) was 0.0557 L/kg, the “Half-live, terminal (second phase)” value ([5]; IV, 2.5-24 hours, modified to include a tyrosine at the C-terminus) was “about 34 hours” and the “Half-live, terminal (second phase)” value ([5]; IV, 2.5-24 hours, which was modified to have a Y residue at the C-terminus) was “approximately 34 hours”. For the same compound, the ABCA1-dependent cholesterol efflux (ABCA1 [3]; macrophages with vs without cAMP, listed as S26>Y) was “stimulated ABCA1 cholesterol efflux like the parent 26-mer polypeptide; also recorded: retained ABCA1-dependent cholesterol efflux activity”.
